Laboratory results published in patent US20260055211A1 (GLYCOERA, published 2026).

Legend:
[1] = target: T1, recombinant anti-PR3 antibody CLB12.8; test: SPR (Biacore 8K), single cycle kinetics, CLB12.8 immobilized, steady state fit
T1 construct: Mouse monoclonal anti-PR3 antibody (detected with anti-mouse IgG); recombinant form used in SPR; also called anti-PR3 antibody clone CLB12.8; anti-PR3 mouse antibody
Description: (§1) Methods: Surface plasmon resonance (SPR) was used to measure binding kinetics (i.e., ka, kd, KD, equilibrium) of the PR3 glycoengineered polypeptide analyte to a recombinant CLB12.8 ligand (anti-PR3 antibody) or a biotinylated recombinant human ASGPR1 ligand (Acro Biosystems). Data was collected with a Biocore 8K. Either recombinant CLB12.8 or ASGPR1 was immobilized to the surface of a sensor chip and sequential injections of increasing concentrations of the PR3 glycoengineered polypeptide were performed in a single cycle kinetics experiment. ASGPR1 assays included 2 mM CaCl2 in the running buffer. Data were fit with a 1:1 binding model for CLB12.8 and with a heterogenous binding model for ASGPR1 using the fitting software provided by Cytiva.

[2] = target: T1, recombinant anti-PR3 antibody CLB12.8; test: SPR (Biacore 8K), single cycle kinetics, CLB12.8 immobilized, m1 as analyte, 1:1 binding model
Description: as §1

[3] = target: T1, recombinant anti-PR3 antibody CLB12.8; test: SPR (Biacore 8K), single cycle kinetics, CLB12.8 immobilized, kinetic (pre-steady state) fit, 1:1 binding model
Description: as §1

[4] = target: T2, biotinylated recombinant human ASGPR1 (Acro Biosystems) (human, UniProt P07306 62-291, biotinylated); test: SPR (Biacore 8K), single cycle kinetics, biotinylated ASGPR1 immobilized, 2 mM CaCl2, steady state fit; steady state KD (equilibrium fit)
T2 construct: Bought reagent
T2 sequence (looked up): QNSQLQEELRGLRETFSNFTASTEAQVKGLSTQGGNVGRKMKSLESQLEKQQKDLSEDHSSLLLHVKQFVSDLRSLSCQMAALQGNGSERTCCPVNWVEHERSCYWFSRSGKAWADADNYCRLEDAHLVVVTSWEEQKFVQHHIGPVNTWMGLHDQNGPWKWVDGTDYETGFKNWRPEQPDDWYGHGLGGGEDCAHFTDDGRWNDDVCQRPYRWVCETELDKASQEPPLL
Description: as §1

[5] = target: T2, biotinylated recombinant human ASGPR1 …; test: SPR (Biacore 8K), single cycle kinetics, ASGPR1 immobilized, 2 mM CaCl2, heterogeneous binding model; column ka2 (second component)
Description: as §1

[6] = target: T2, biotinylated recombinant human ASGPR1 …; test: SPR (Biacore 8K), single cycle kinetics, ASGPR1 immobilized, 2 mM CaCl2, heterogeneous binding model; column kd2 (second component)
Description: as §1

[7] = target: T2, biotinylated recombinant human ASGPR1 …; test: SPR (Biacore 8K), single cycle kinetics, biotinylated ASGPR1 immobilized, 2 mM CaCl2, heterogenous binding model, KD1; pre-steady state KD1 (kinetic fit, first site)
Description: as §1

[8] = target: T2, biotinylated recombinant human ASGPR1 …; test: SPR (Biacore 8K), single cycle kinetics, biotinylated ASGPR1 immobilized, 2 mM CaCl2, heterogenous binding model, KD2; pre-steady state KD2 (kinetic fit, second site)
Description: as §1

[9] = target: T2, biotinylated recombinant human ASGPR1 …; test: SPR (Biacore 8K), single cycle kinetics, biotinylated ASGPR1 immobilized, m1 as analyte, 2 mM CaCl2, heterogenous binding model; ka1, first component of the heterogenous binding model
Description: as §1

[10] = target: T2, biotinylated recombinant human ASGPR1 …; test: SPR (Biacore 8K), single cycle kinetics, biotinylated ASGPR1 immobilized, m1 as analyte, 2 mM CaCl2, heterogenous binding model; kd1, first component of the heterogenous binding model
Description: as §1

B1: PR3 glycoengineered polypeptide (other)
chain: IVGGHEAQPHSRPYMASLQMRGNPGSHFCGGTLIHPSFVLTAAHCLRDIPQRLVNVVLGAHNVRTQEPTQQHFSVAQVFLNNYDAENKLNDVLLIQLSSPANLSASVATVQLPQQDQPVPHGTQCLAMGWGRVGAHDPPAQVLQELNVTVVTAACRPHNICTFVPRRKAGICFGDAGGPLICDGIIQGIDSFVIWGCATRAAPDFFTRVALYVDWIRSTLRRVEAKGRPGGGGANSTAPAPAPAHHHHHHHHHH
modifications: N-glycans (81.5% A2GalNAc2, biantennary GalNAc-terminated) at the native sites N129 and N174 (numbering of UniProt P24158) and at the Asn of the C-terminal glycotag; 80-90% of molecules fully …
notes: Secreted from glycoengineered Leishmania tarentolae (cell line stCGP05880) and purified by IMAC; also called exemplary PR3 glycoengineered polypeptide; glycoengineered polypeptide of PR3
B1 was tested, and the Kd [1] was 32.4 nM, the koff [2] was 0.0754 s⁻¹ and the kon [2] was 305000 M⁻¹ s⁻¹. The Kd [3] was 24.7 nM, the Kd [4] was 364 nM and the kon [5] was 873 M⁻¹ s⁻¹. For the same binder, the koff [6] was 6.16e-05 s⁻¹, the Kd [7] was 46.9 nM and the Kd [8] was 70.6 nM. It also gave a kon [9] of 1.61e+08 M⁻¹ s⁻¹ and a koff [10] of 7.54 s⁻¹.
